Results: patent US20210388110A1 (published 2021)
Positions count from the first letter of the chain named.

B1: TR01H040-E22Hh/none-Hi-Kn010G3/L0213-k0 (antibody, human IgG1, kappa, L234A L235A, N297A)
heavy: QVQLVESGGGLVQPGRSLRLSCAASGFTFSNAWMHWVRQAPGKGLEWVAQIKDKSQNYATYYAESVKGRFTISRADSKNSIYLQMNSLKTEDTAVYYCRYVHYSASYGVDAWGQGTTVTVSSASTKGPSVFPLAPSSKSTSGGTAALGCLVKDYFPEPVTVSWNSGALTSGVHTFPAVLQSSGLYSLSSVVTVPSSSLGTQTYICNVNHKPSNTKVDKKVEPKSCDKTHTCPPCPAPEAAGGPSVFLFPPKPKDTLMISRTPEVTCVVVDVSHEDPEVKFNWYVDGVEVHNAKTKPREEQYASTYRVVSVLTVLHQDWLNGKEYKCKVSNKALPAPIEKTISKAKGQPREPQVYTLPPSRCELTKNQVSLSCAVKGFYPSDIAVEWESNGQPENNYKTTPPVLDSDGSFFLVSKLTVDKSRWQQGNVFSCSVMHEALHNHYTQKSLSLSPDYKDDDDK
chain: EPKSSDKTHTCPPCPAPELLGGPSVFLFPPKPKDTLMISRTPEVTCVVVDVSHEDPEVKFNWYVDGVEVHNAKTKPREEQYNSTYRVVSVLTVLHQDWLNGKEYKCKVSNKALPAPIEKTISKAKGQPREPQVCTLPPSRDELTKNQVSLWCLVKGFYPSDIAVEWESNGQPENNYKTTPPVLDSDGSFFLYSKLTVDKSRWQQGNVFSCSVMHEALHNRYTQKSLSLSP
light: DIVMTQSPLSLPVTPGEPASISCRSSQSPVHSNRNTYIHWYQQKPGQAPRLLIYKVSNRFRGVPDRFSGSGSGTDFTLKISRVEAEDVGVYYCGQGTQVPYTFGQGTKLEIKRTVAAPSVFIFPPSDEQLKSGTASVVCLLNNFYPREAKVQWKVDNALQSGNSQESVTEQDSKDSTYSLSSTLTLSKADYEKHKVYACEVTHQGLSSPVTKSFNRGEC
notes: single-arm
B2: TR01H040-E22Hh/none-Hi-Kn010G3/L0214-k0 (antibody, human IgG1, kappa, L234A L235A, N297A)
heavy: B1 heavy
chain: B1 chain
light: B1 light with S28P, I38L
notes: single-arm
B3: TR01H040-E22Hh/none-Hi-Kn010G3/L0215-k0 (antibody, human IgG1, kappa, L234A L235A, N297A)
heavy: B1 heavy
chain: B1 chain
light: B1 light with S28P, R61S
notes: single-arm
B4: TR01H040-E22Hh/none-Hi-Kn010G3/L0216-k0 (antibody, human IgG1, kappa, L234A L235A, N297A)
heavy: B1 heavy
chain: B1 chain
light: B1 light with S28P, P29L, I38L
notes: single-arm
B5: TR01H040-E22Hh/none-Hi-Kn010G3/L0217-k0 (antibody, human IgG1, kappa, L234A L235A, N297A)
heavy: B1 heavy
chain: B1 chain
light: B1 light with S25P, P29L, I38L
notes: single-arm
B6: TR01H040-E22Hh/none-Hi-Kn010G3/L0218-k0 (antibody, human IgG1, kappa, L234A L235A, N297A)
heavy: B1 heavy
chain: B1 chain
light: B1 light with P29L, I38L, G94Y
notes: single-arm
B7: TR01H040-E22Hh/none-Hi-Kn010G3/L0219-k0 (antibody, human IgG1, kappa, L234A L235A, N297A)
heavy: B1 heavy
chain: B1 chain
light: B1 light with P29L
notes: single-arm
B8: TR01H040-E22Hh/none-Hi-Kn010G3/L0220-k0 (antibody, human IgG1, kappa, L234A L235A, N297A)
heavy: B1 heavy
chain: B1 chain
light: B1 light with S28P, P29L, I38L, G94Y
notes: single-arm
B9: TR01H040-E22Hh/none-Hi-Kn010G3/L0222-k0 (antibody, human IgG1, kappa, L234A L235A, N297A)
heavy: B1 heavy
chain: B1 chain
light: B1 light with H39Q, R61S, G94Y
notes: single-arm
B10: TR01H040-E22Hh/none-Hi-Kn010G3/L0223-k0 (antibody, human IgG1, kappa, L234A L235A, N297A)
heavy: B1 heavy
chain: B1 chain
light: B1 light with F60L, R61S, G94Y
notes: single-arm
B11: TR01H040-E22Hh/none-Hi-Kn010G3/L0224-k0 (antibody, human IgG1, kappa, L234A L235A, N297A)
heavy: B1 heavy
chain: B1 chain
light: B1 light with R61P, G94Y
notes: single-arm
B12: TR01H040-E22Hh/none-Hi-Kn010G3/L0228-k0 (antibody, human IgG1, kappa, L234A L235A, N297A)
heavy: B1 heavy
chain: B1 chain
light: B1 light with R61S, G94V
notes: single-arm
B13: TR01H040-E22Hh/none-Hi-Kn010G3/L0231-k0 (antibody, human IgG1, kappa, L234A L235A, N297A)
heavy: B1 heavy
chain: B1 chain
light: B1 light with R61S, G94Y, V99W
notes: single-arm
B14: TR01H040-E22Hh/none-Hi-Kn010G3/L0232-k0 (antibody, human IgG1, kappa, L234A L235A, N297A)
heavy: B1 heavy
chain: B1 chain
light: B1 light with Q27E, P29L, I38L, R61S
notes: single-arm
B15: TR01H040-E22Hh/none-Hi-Kn010G3/L0233-k0 (antibody, human IgG1, kappa, L234A L235A, N297A)
heavy: B1 heavy
chain: B1 chain
light: B1 light with S28E, P29L, I38L, R61S
notes: single-arm
B16: TR01H040-E22Hh/none-Hi-Kn010G3/L0234-k0 (antibody, human IgG1, kappa, L234A L235A, N297A)
heavy: B1 heavy
chain: B1 chain
light: B1 light with S28E, I38L
notes: single-arm
B17: TR01H040-E22Hh/none-Hi-Kn010G3/L0235-k0 (antibody, human IgG1, kappa, L234A L235A, N297A)
heavy: B1 heavy
chain: B1 chain
light: B1 light with S28E, I38L, R61S, G94Y
notes: single-arm
B18: TR01H040-E22Hh/none-Hi-Kn010G3/L0236-k0 (antibody, human IgG1, kappa, L234A L235A, N297A)
heavy: B1 heavy
chain: B1 chain
light: B1 light with S28E, I38L, R61W, G94Y
notes: single-arm
B19: TR01H040-E22Hh/none-Hi-Kn010G3/L0237-k0 (antibody, human IgG1, kappa, L234A L235A, N297A)
heavy: B1 heavy
chain: B1 chain
light: B1 light with S28E, R61S, G94Y
notes: single-arm
B20: TR01H040-E22Hh/none-Hi-Kn010G3/L0238-k0 (antibody, human IgG1, kappa, L234A L235A, N297A)
heavy: B1 heavy
chain: B1 chain
light: B1 light with Q27E, S28P, I38L, R61S, G94Y
notes: single-arm
B21: TR01H040-E22Hh/none-Hi-Kn010G3/L0239-k0 (antibody, human IgG1, kappa, L234A L235A, N297A)
heavy: B1 heavy
chain: B1 chain
light: B1 light with Q27E, I38L
notes: single-arm
B22: TR01H040-E22Hh/none-Hi-Kn010G3/L0240-k0 (antibody, human IgG1, kappa, L234A L235A, N297A)
heavy: B1 heavy
chain: B1 chain
light: B1 light with Q27E, I38L, R61S, G94Y
notes: single-arm
B23: TR01H040-E22Hh/none-Hi-Kn010G3/L0241-k0 (antibody, human IgG1, kappa, L234A L235A, N297A)
heavy: B1 heavy
chain: B1 chain
light: B1 light with Q27E, I38L, R61W, G94Y
notes: single-arm
B24: TR01H040-E22Hh/none-Hi-Kn010G3/L0242-k0 (antibody, human IgG1, kappa, L234A L235A, N297A)
heavy: B1 heavy
chain: B1 chain
light: B1 light with Q27E, R61S, G94Y
notes: single-arm
B25: TR01H040-E22Hh/none-Hi-Kn010G3/L0243-k0 (antibody, human IgG1, kappa, L234A L235A, N297A)
heavy: B1 heavy
chain: B1 chain
light: B1 light with Q27E, S28P, I38L
notes: single-arm
B26: TR01H040-E22Hh/none-Hi-Kn010G3/L0250-k0 (antibody, human IgG1, kappa, L234A L235A, N297A)
heavy: B1 heavy
chain: B1 chain
light: B1 light with S25P, H39Q, R61S, G94I
notes: single-arm
B27: TR01H040-E22Hh/none-Hi-Kn010G3/L0262-k0 (antibody, human IgG1, kappa, L234A L235A, N297A)
heavy: B1 heavy
chain: B1 chain
light: B1 light with S28P, I38L, R61S, G94A
notes: single-arm
B28: TR01H040-E22Hh/none-Hi-Kn010G3/TR01L008-k0 (antibody, human IgG1, kappa, L234A L235A, N297A)
heavy: B1 heavy
chain: B1 chain
light: B1 light with R24Q, S25A, Q27E, P29L, I38L
notes: single-arm
B29: TR01H040-E22Hh/none-Hi-Kn010G3/TR01L009-k0 (antibody, human IgG1, kappa, L234A L235A, N297A)
heavy: B1 heavy
chain: B1 chain
light: B1 light with P29L, I38L, Q42L, A48S, R50Q
notes: single-arm
B30: TR01H040-E22Hh/none-Hi-Kn010G3/TR01L010-k0 (antibody, human IgG1, kappa, L234A L235A, N297A)
heavy: B1 heavy
chain: B1 chain
light: B1 light with P29L, I38L, L109V, K112E
notes: single-arm
B31: TR01H040-E22Hh/none-Hi-Kn010G3/TR01L011-k0 (antibody, human IgG1, kappa, L234A L235A, N297A)
heavy: B1 heavy
chain: B1 chain
light: B1 light with R24Q, S25A, Q27E, P29L, I38L, L109V, K112E
notes: single-arm
B32: TR01H040-E22Hh/none-Hi-Kn010G3/TR01L012-k0 (antibody, human IgG1, kappa, L234A L235A, N297A)
heavy: B1 heavy
chain: B1 chain
light: B1 light with P29L, I38L, Q42L, A48S, R50Q, L109V, K112E
notes: single-arm
B33: TR01H040-E22Hh/none-Hi-Kn010G3/TR01L013-k0 (antibody, human IgG1, kappa, L234A L235A, N297A)
heavy: B1 heavy
chain: B1 chain
light: B1 light with R24Q, S25A, Q27E, P29L, I38L, Q42L, A48S, R50Q, L109V, K112E
notes: single-arm
B34: TR01H040-E22Hh/none-Hi-Kn010G3/TR01L015-k0 (antibody, human IgG1, kappa, L234A L235A, N297A)
heavy: B1 heavy
chain: B1 chain
light: B1 light with I38L, Q42L, A48S, R50Q, R61S
notes: single-arm
B35: TR01H040-E22Hh/none-Hi-Kn010G3/TR01L016-k0 (antibody, human IgG1, kappa, L234A L235A, N297A)
heavy: B1 heavy
chain: B1 chain
light: B1 light with I38L, Q42L, A48S, R50Q, R61S, G94Y
notes: single-arm
B36: TR01H040-E22Hh/none-Hi-Kn010G3/TR01L018-k0 (antibody, human IgG1, kappa, L234A L235A, N297A)
heavy: B1 heavy
chain: B1 chain
light: B1 light with R24Q, S25A, Q27E, I38L, Q42L, A48S, R50Q, R61S
notes: single-arm

The binders below were run against T1, soluble human CD3ε chain (human, UniProt P07766 23-126, limits assumed) (assay: SPR (Biacore)).
T1 construct: the text says soluble human CD3ε chain; also called human CD3 epsilon chain
T1 sequence (P07766 23-126 limits assumed): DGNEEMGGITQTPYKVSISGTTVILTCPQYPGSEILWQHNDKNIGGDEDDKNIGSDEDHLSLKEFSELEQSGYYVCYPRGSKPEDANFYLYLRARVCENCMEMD

Binder	Kd [µM]
B1	0.0201
B2	0.0202
B3	0.0337
B4	0.0253
B5	0.0207
B6	0.0082
B7	0.0394
B8	0.00915
B9	0.0465
B10	0.00815
B11	0.00506
B12	0.016
B13	0.00775
B14	0.0386
B15	0.0401
B16	0.024
B17	0.00281
B18	0.00564

Binder	Kd [µM]
B19	0.0102
B20	0.00291
B21	0.0231
B22	0.00217
B23	0.00348
B24	0.00358
B25	0.0246
B26	0.0215
B27	0.0181
B28	0.0293
B29	0.0356
B30	0.0328
B31	0.0357
B32	0.0422
B33	0.0415
B34	0.0395
B35	0.00252
B36	0.0451
